One block for each substance: values may come before it.
Experiments:
[1] = target: binding target for TKPPR on HAEC (human aortic endothelial cells); test: fluorescent beads on confluent HAEC, static 30 min, image analysis
[2] = target: binding target for TKPPR on HAEC (human aortic endothelial cells); test: competition of 2% D47 bubble binding to HAEC; VEGF121 400 ng/mL
[3] = target: binding target for TKPPR on HAEC (human aortic endothelial cells); test: competition of 2% D47 bubble binding to HAEC; VEGF121 200 ng/mL
[4] = target: binding target for TKPPR on HAEC (human aortic endothelial cells); test: competition of 2% D47 bubble binding to HAEC; VEGF121 100 ng/mL
[5] = target: binding target for TKPPR on HAEC (human aortic endothelial cells); test: competition of 5% composition bubble binding to HAEC; VEGF165 12.5 ng/mL
[6] = target: binding target for TKPPR on HAEC (human aortic endothelial cells); test: competition of 5% composition bubble binding to HAEC; VEGF165 50 ng/mL
[7] = target: binding target for TKPPR on HAEC (human aortic endothelial cells); test: competition of 5% composition bubble binding to HAEC
[8] = target: binding target for TKPPR on HAEC (human aortic endothelial cells); test: competition of 2% D47 bubble binding to HAEC; VEGF165 25 ng/mL
[9] = target: binding target for TKPPR on HAEC (human aortic endothelial cells); test: competition of 2% D47 bubble binding to HAEC; VEGF165 100 ng/mL
[10] = target: binding target for TKPPR on HAEC (human aortic endothelial cells); test: competition of 5% composition bubble binding to HAEC; VEGF165 6.25 ng/mL
[11] = target: binding target for TKPPR on HAEC (human aortic endothelial cells); test: competition of 5% composition bubble binding to HAEC; VEGF165 25 ng/mL
[12] = target: binding target for TKPPR on HAEC (human aortic endothelial cells); test: competition of 5% composition bubble binding to HAEC; VEGF165 75 ng/mL
[13] = target: binding target for TKPPR on HAEC (human aortic endothelial cells); test: competition of 5% composition bubble binding to HAEC; KDR/Fc 1000 ng/mL
[14] = target: binding target for TKPPR on HAEC (human aortic endothelial cells); test: competition of 5% composition bubble binding to HAEC; KDR/Fc 125 ng/mL
[15] = target: binding target for TKPPR on HAEC (human aortic endothelial cells); test: competition of 5% composition bubble binding to HAEC; KDR/Fc 500 ng/mL
[16] = target: binding target for TKPPR on HAEC (human aortic endothelial cells); test: competition of 5% composition bubble binding to HAEC; KDR/Fc 250 ng/mL
[17] = target: binding target for TKPPR on HAEC (human aortic endothelial cells); test: competition of 5% composition bubble binding to HAEC; KDR/Fc 2500 ng/mL

Chain of soluble human KDR/Fc chimera (R&D Systems Inc.) (P35968 20-764, change not shown): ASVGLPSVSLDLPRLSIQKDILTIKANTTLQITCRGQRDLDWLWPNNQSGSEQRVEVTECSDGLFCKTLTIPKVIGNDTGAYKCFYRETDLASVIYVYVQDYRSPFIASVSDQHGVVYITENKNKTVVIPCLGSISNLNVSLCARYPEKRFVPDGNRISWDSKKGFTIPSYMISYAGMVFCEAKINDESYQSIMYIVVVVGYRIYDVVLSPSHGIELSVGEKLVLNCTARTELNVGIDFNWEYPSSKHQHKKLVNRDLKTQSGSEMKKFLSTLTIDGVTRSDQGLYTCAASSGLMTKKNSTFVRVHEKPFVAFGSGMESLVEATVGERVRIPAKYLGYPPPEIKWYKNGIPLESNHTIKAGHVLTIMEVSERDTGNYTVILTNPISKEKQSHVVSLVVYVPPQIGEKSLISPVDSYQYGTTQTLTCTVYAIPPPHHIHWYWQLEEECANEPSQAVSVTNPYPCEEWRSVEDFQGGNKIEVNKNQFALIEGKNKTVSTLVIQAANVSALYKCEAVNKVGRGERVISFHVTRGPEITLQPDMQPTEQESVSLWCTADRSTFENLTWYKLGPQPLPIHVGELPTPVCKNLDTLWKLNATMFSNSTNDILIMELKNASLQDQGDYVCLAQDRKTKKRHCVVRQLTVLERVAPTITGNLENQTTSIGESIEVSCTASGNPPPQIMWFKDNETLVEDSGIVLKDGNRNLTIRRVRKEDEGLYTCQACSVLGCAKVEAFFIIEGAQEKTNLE

Integrated density of bound beads (arbitrary units) [1]: 1.61
Substance: BSA-conjugated fluorescent microspheres (from UniProt P02769 25-607)

Bubbles Bound in presence of competitor [2]: 778 bubbles | Bubbles Bound in presence of competitor [3]: 849 bubbles | Bubbles Bound in presence of competitor [4]: 878 bubbles
Substance: VEGF121 (from UniProt P15692 27-147) (ligand)

Bubbles Bound in presence of competitor [5]: 599 bubbles | Bubbles Bound in presence of competitor [6]: 226 bubbles | IC50 [7]: 0.0125 µg/mL | Bubbles Bound in presence of competitor [8]: 144 bubbles | Bubbles Bound in presence of competitor [9]: 94 bubbles | Bubbles Bound in presence of competitor [10]: 1180 bubbles | Bubbles Bound in presence of competitor [11]: 342 bubbles | Bubbles Bound in presence of competitor [12]: 190 bubbles
Substance: VEGF165 (from UniProt P15692 27-191) (ligand)

Bubbles Bound in presence of competitor [13]: 75 bubbles | Bubbles Bound in presence of competitor [14]: 1030 bubbles | Bubbles Bound in presence of competitor [15]: 342 bubbles | Bubbles Bound in presence of competitor [16]: 786 bubbles | Bubbles Bound in presence of competitor [17]: 84 bubbles
Substance: soluble human KDR/Fc chimera (R&D Systems Inc.) (from UniProt P35968 20-764) (Fc fusion)

— patent publication US20060153775A1
